These results are taken from paper PMC11406360, “The enzymatic oxygen sensor cysteamine dioxygenase binds its protein substrates through their N-termini” (The Journal of Biological Chemistry, 2024).

Sequences and labels used below:
B1: native RGS5 peptide (first 14 amino acids of the methionine excised N terminus of RGS5) [human] / 2-aminoethanethiol (cysteamine) dioxygenase (ADO), biotinylated, for SPR [modified: biotin (N terminally biotinylated; 0.2 mM biotin added at … (parent complex)
chain 1: CKGLAALPHSCLER
chain 2: MPRDNMASLIQRIARQACLTFRGSGGGRGASDRDAASGPEAPMQPGFPENLSKLKSLLTQLRAEDLNIAPRKATLQPLPPNLPPVTYMHIYETDGFSLGVFLLKSGTSIPLHDHPGMHGMLKVLYGTVRISCMDKLDAGGGQRPRALPPEQQFEPPLQPREREAVRPGVLRSRAEYTEASGPCILTPHRDNLHQIDAVEGPAAFLDILAPPYDPDDGRDCHYYRVLEPVRPKEASSSACDLPREVWLLETPQADDFWCEGEPYPGPKVFP

The assay covers variants of B1. Kind of assay: SPR; parent: 290 nM. On the technique in general: In SPR one partner is held on a chip, and binding of the other changes the refractive index at the surface.
On to chain 1 CKGLAALAHSCLER [chain 1 P8A], for which the Kd – broadly, the constant that tells how readily two partners part at equilibrium – was found to be 250 nM.

In the case of chain 1 CKGLAALPHSALER [chain 1 C11A], the Kd came to 300 nM.

As to chain 1 CKGLAALPHSCLEA [chain 1 R14A], the Kd came to 210 nM.

With chain 1 CKGLAALPHACLER [chain 1 S10A], the Kd amounted to 350 nM.

For chain 1 CKGLAALPHSCAER [chain 1 L12A], the Kd amounted to 260 nM.

On to chain 1 CKGLAAAPHSCLER [chain 1 L7A], for which the Kd stood at 310 nM.

Turning to chain 1 CKGAAALPHSCLER [chain 1 L4A], the Kd came out at 220 nM.

chain 1 CKGLAALPHSCLAR [chain 1 E13A]: the Kd was 260 nM.

Regarding chain 1 CKGLAALPASCLER [chain 1 H9A], the Kd was found to be 240 nM.
